Reference: the Immune Epitope Database (IEDB)

Tests used:
[1] = target: HLA-A*02:03; experiment: IEDB peptide-MHC binding, purified MHC/competitive/fluorescence; filed as Kd, often an IC50 or EC50 that approximates it; ≥ and ≤ were set here for values at or beyond the usual limits of such assays
[2] = target: HLA-B*15:01; experiment: as above
[3] = target: HLA-A*29:02; experiment: as above
[4] = target: HLA-A*24:03; experiment: as above
[5] = target: HLA-B*27:03; experiment: as above
[6] = target: HLA-B*18:01; experiment: as above
[7] = target: HLA-B*51:01; experiment: as above
[8] = target: HLA-A*68:02; experiment: as above
[9] = target: HLA-A*26:01; experiment: as above
[10] = target: HLA-A*02:19; experiment: as above
[11] = target: HLA-B*39:01; experiment: as above
[12] = target: HLA-B*46:01; experiment: as above
[13] = target: HLA-A*03:01; experiment: as above
[14] = target: HLA-B*57:01; experiment: as above
[15] = target: HLA-A*02:01; experiment: as above
[16] = target: HLA-A*23:01; experiment: as above
[17] = target: HLA-A*02:12; experiment: as above
[18] = target: HLA-A*69:01; experiment: as above
[19] = target: HLA-B*15:01; experiment: IEDB peptide-MHC binding, purified MHC/direct/fluorescence; filed as Kd, often an IC50 or EC50 that approximates it; ≥ and ≤ were set here for values at or beyond the usual limits of such assays; conditions: source organism: Mycobacterium tuberculosis
[20] = target: HLA-B*15:17; experiment: as above; conditions: source organism: Mycobacterium tuberculosis
[21] = target: HLA-B*51:01; experiment: as above; conditions: source organism: Mycobacterium tuberculosis
[22] = target: HLA-B*15:09; experiment: as above; conditions: source organism: Mycobacterium tuberculosis str. Haarlem
[23] = target: HLA-B*40:01; experiment: as above; conditions: source organism: Mycobacterium tuberculosis
[24] = target: HLA-B*46:01; experiment: as above; conditions: source organism: Mycobacterium tuberculosis
[25] = target: HLA-B*58:01; experiment: as above; conditions: source organism: Mycobacterium tuberculosis
[26] = target: HLA-A*03:01; experiment: as above; conditions: source organism: Mycobacterium tuberculosis
[27] = target: HLA-A*01:01; experiment: as above; conditions: source organism: Mycobacterium tuberculosis
[28] = target: HLA-A*31:01; experiment: as above; conditions: source organism: Mycobacterium tuberculosis
[29] = target: HLA-B*57:01; experiment: as above; conditions: source organism: Mycobacterium tuberculosis
[30] = target: HLA-B*48:01; experiment: as above; conditions: source organism: Mycobacterium tuberculosis
[31] = target: HLA-A*02:01; experiment: as above; conditions: source organism: Mycobacterium tuberculosis
[32] = target: HLA-B*27:05; experiment: as above; conditions: source organism: Mycobacterium tuberculosis
[33] = target: HLA-A*11:01; experiment: IEDB peptide-MHC binding, purified MHC/competitive/fluorescence; filed as Kd, often an IC50 or EC50 that approximates it; ≥ and ≤ were set here for values at or beyond the usual limits of such assays; conditions: source organism: Mycobacterium tuberculosis variant bovis BCG str. Pasteur 1173P2
[34] = target: HLA-A*30:01; experiment: as above; conditions: source organism: Mycobacterium tuberculosis variant bovis BCG str. Pasteur 1173P2
[35] = target: HLA-B*08:01; experiment: as above
[36] = target: HLA-B*15:17; experiment: as above; conditions: source organism: Burkholderia pseudomallei K96243
[37] = target: HLA-A*02:16; experiment: as above
[38] = target: HLA-A*02:11; experiment: as above
[39] = target: HLA-A*31:01; experiment: as above; conditions: source organism: Entamoeba histolytica HM-1:IMSS
[40] = target: HLA-B*07:02; experiment: as above; conditions: source organism: Yersinia pestis Nepal516
[41] = source organism: Plasmodium yoelii yoelii
[42] = source organism: Mycobacterium tuberculosis variant bovis BCG str. Pasteur 1173P2
[43] = source organism: Burkholderia pseudomallei K96243
[44] = source organism: Entamoeba histolytica HM-1:IMSS
[45] = source organism: Cryptosporidium parvum Iowa II
[46] = source organism: Yersinia pestis Nepal516
[47] = source organism: Human immunodeficiency virus 1

Sequence: KPPRGVLLY
- Kd [1, 41]: ≥ 20 µM
- Kd [2, 41]: ≥ 20 µM
- Kd [3, 41]: 0.115 µM
- Kd [4, 41]: ≥ 20 µM
- Kd [5, 41]: ≥ 20 µM
- Kd [6, 41]: ≥ 20 µM
- Kd [7, 41]: ≥ 20 µM
- Kd [8, 41]: ≥ 20 µM
- Kd [9, 41]: ≥ 20 µM
- Kd [10, 41]: ≥ 20 µM
- Kd [11, 41]: ≥ 20 µM
- Kd [12, 41]: ≥ 20 µM
- Kd [13, 41]: ≥ 20 µM
- Kd [14, 41]: ≥ 20 µM
- Kd [15, 41]: ≥ 20 µM
- Kd [16, 41]: ≥ 20 µM
- Kd [17, 41]: ≥ 20 µM
- Kd [18, 41]: ≥ 20 µM

Sequence: YPARVKCAL
- Kd [19]: ≥ 20 µM
- Kd [20]: ≥ 20 µM
- Kd [21]: ≥ 20 µM
- Kd [22]: 1.09 µM
- Kd [23]: ≥ 20 µM
- Kd [24]: ≥ 20 µM
- Kd [25]: ≥ 20 µM
- Kd [26]: ≥ 20 µM
- Kd [27]: ≥ 20 µM
- Kd [28]: ≥ 20 µM
- Kd [29]: ≥ 20 µM
- Kd [30]: ≥ 20 µM
- Kd [31]: ≥ 20 µM
- Kd [32]: ≥ 20 µM
- Kd [33]: ≥ 20 µM
- Kd [34]: 2.54 µM
- Kd [35, 42]: 0.097 µM
- Kd [11, 42]: 0.0229 µM
- Kd [18, 42]: ≥ 20 µM

Sequence: SELTVSPPD
- Kd [1, 43]: ≥ 20 µM
- Kd [2, 43]: ≥ 20 µM
- Kd [36]: ≥ 20 µM
- Kd [4, 43]: ≥ 20 µM
- Kd [5, 43]: ≥ 20 µM
- Kd [6, 43]: 0.845 µM
- Kd [7, 43]: ≥ 20 µM
- Kd [8, 43]: ≥ 20 µM
- Kd [9, 43]: ≥ 20 µM
- Kd [10, 43]: ≥ 20 µM
- Kd [11, 43]: ≥ 20 µM
- Kd [12, 43]: ≥ 20 µM
- Kd [13, 43]: ≥ 20 µM
- Kd [14, 43]: ≥ 20 µM
- Kd [15, 43]: ≥ 20 µM
- Kd [17, 43]: ≥ 20 µM
- Kd [37, 43]: ≥ 20 µM
- Kd [18, 43]: ≥ 20 µM

Sequence: RSLVCLAPK
- Kd [1, 44]: ≥ 20 µM
- Kd [2, 44]: ≥ 20 µM
- Kd [3, 44]: ≥ 20 µM
- Kd [4, 44]: ≥ 20 µM
- Kd [5, 44]: ≥ 20 µM
- Kd [6, 44]: ≥ 20 µM
- Kd [7, 44]: ≥ 20 µM
- Kd [8, 44]: ≥ 20 µM
- Kd [9, 44]: ≥ 20 µM
- Kd [10, 44]: ≥ 20 µM
- Kd [11, 44]: ≥ 20 µM
- Kd [12, 44]: ≥ 20 µM
- Kd [38, 44]: ≥ 20 µM
- Kd [39]: 0.0465 µM
- Kd [14, 44]: ≥ 20 µM
- Kd [15, 44]: ≥ 20 µM
- Kd [16, 44]: ≥ 20 µM
- Kd [17, 44]: ≥ 20 µM
- Kd [37, 44]: ≥ 20 µM
- Kd [18, 44]: ≥ 20 µM

Sequence: LTAPCDIYV
- Kd [2, 45]: ≥ 20 µM
- Kd [3, 45]: ≥ 20 µM
- Kd [4, 45]: ≥ 20 µM
- Kd [5, 45]: ≥ 20 µM
- Kd [6, 45]: ≥ 20 µM
- Kd [7, 45]: ≥ 20 µM
- Kd [9, 45]: ≥ 20 µM
- Kd [10, 45]: ≥ 20 µM
- Kd [11, 45]: ≥ 20 µM
- Kd [12, 45]: ≥ 20 µM
- Kd [38, 45]: ≥ 20 µM
- Kd [13, 45]: ≥ 20 µM
- Kd [14, 45]: ≥ 20 µM
- Kd [15, 45]: ≥ 20 µM
- Kd [16, 45]: ≥ 20 µM
- Kd [37, 45]: 0.0005 µM

Sequence: MPLKVQVCI
- Kd [7, 46]: 1.27 µM
- Kd [35, 46]: 0.816 µM
- Kd [40]: 0.304 µM

Sequence: GLADQLIHM
- Kd [1, 47]: 0.0024 µM
- Kd [10, 47]: 0.155 µM
- Kd [38, 47]: 0.0008 µM
- Kd [15, 47]: 0.0837 µM
- Kd [18, 47]: ≥ 20 µM
